Measured values published in patent US20230002480A1.

How the values were obtained:
Assay in all cases: cell-based or functional assay
[1] = target: HIV-1 Env of pseudovirus 6041.v3.c23 (HIV-1)
[2] = target: HIV-1 Env of pseudovirus P0402_c2_11 (HIV-1)
[3] = target: HIV-1 Env of pseudovirus R2184.c04 (HIV-1)
[4] = target: HIV-1 Env of pseudovirus 211-9 (HIV-1)
[5] = target: HIV-1 Env of pseudovirus X1254_c3 (HIV-1)
[6] = target: HIV-1 Env of pseudovirus 191955_A11 (HIV-1)
[7] = target: HIV-1 Env of pseudovirus 231965.c01 (HIV-1)
[8] = target: HIV-1 Env of pseudovirus 6545.v4.c1 (HIV-1)
[9] = target: HIV-1 Env of pseudovirus 3103.v3.c10 (HIV-1)
[10] = target: HIV-1 Env of pseudovirus BJOX015000.11.5 (HIV-1)
[11] = target: HIV-1 Env of pseudovirus 235-47 (HIV-1)
[12] = target: HIV-1 Env of pseudovirus C4118.c09 (HIV-1)
[13] = target: HIV-1 Env of pseudovirus X1632_S2_B10 (HIV-1)
[14] = target: HIV-1 Env of pseudovirus BJOX009000.02.4 (HIV-1)
[15] = target: HIV-1 Env of pseudovirus 6480.v4.c25 (HIV-1)
[16] = target: HIV-1 Env of pseudovirus Q842.d12 (HIV-1)
[17] = target: HIV-1 Env of pseudovirus Du422.1 (HIV-1)
[18] = target: HIV-1 Env of pseudovirus Ce703010054_2A2 (HIV-1)
[19] = target: HIV-1 Env of pseudovirus SC422661.8 (HIV-1)
[20] = target: HIV-1 Env of pseudovirus 249M B10 (HIV-1)
[21] = target: HIV-1 Env of pseudovirus BF1266.431a (HIV-1)
[22] = target: HIV-1 Env of pseudovirus ZM109F.PB4 (HIV-1)
[23] = target: HIV-1 Env of pseudovirus 62357_14_D3_4589 (HIV-1)
[24] = target: HIV-1 Env of pseudovirus 6240_08_TA5_4622 (HIV-1)
[25] = target: HIV-1 Env of pseudovirus 1012_11_TC21_3257 (HIV-1)
[26] = target: HIV-1 Env of pseudovirus 1006_11_C3_1601 (HIV-1)
[27] = target: HIV-1 Env of pseudovirus ZM53M.PB12 (HIV-1)
[28] = target: HIV-1 Env of pseudovirus Du156.12 (HIV-1)
[29] = target: HIV-1 Env of pseudovirus RHPA4259.7 (HIV-1)
[30] = target: HIV-1 Env of pseudovirus Q259.d2.17 (HIV-1)
[31] = target: HIV-1 Env of pseudovirus HIV-16055-2.3 (HIV-1)
[32] = target: HIV-1 Env of pseudovirus CAP45.2.00.G3 (HIV-1)

**Q.** N49P7.2 (antibody) was tested. Which IC50 [1] did it give?
**A.** 0.309 µg/mL

**Q.** What about the IC80 [1] of the same substance?
**A.** 5.11 µg/mL

**Q.** And the MPI [1]?
**A.** 94

**Q.** And the IC50 [2]?
**A.** 0.106 µg/mL

**Q.** What about the IC80 [2] of the same substance?
**A.** 0.4 µg/mL

**Q.** And the MPI [2]?
**A.** 100

**Q.** What about the IC50 [3] of the same substance?
**A.** 0.02 µg/mL

**Q.** And the IC80 [3]?
**A.** 0.047 µg/mL

**Q.** And the MPI [3]?
**A.** 100

**Q.** What about the IC50 [4] of the same substance?
**A.** 0.363 µg/mL

**Q.** And the IC80 [4]?
**A.** 1.22 µg/mL

**Q.** What about the MPI [4] of the same substance?
**A.** 100

**Q.** And the IC50 [5]?
**A.** 27.5 µg/mL

**Q.** What about the IC80 [5] of the same substance?
**A.** > 50 µg/mL

**Q.** And the MPI [5]?
**A.** 53

**Q.** And the IC50 [6]?
**A.** 44.5 µg/mL

**Q.** What about the IC80 [6] of the same substance?
**A.** > 50 µg/mL

**Q.** And the MPI [6]?
**A.** 56

**Q.** And the IC50 [7]?
**A.** 0.316 µg/mL

**Q.** What about the IC80 [7] of the same substance?
**A.** 1.06 µg/mL

**Q.** And the MPI [7]?
**A.** 100

**Q.** And the IC50 [8]?
**A.** > 50 µg/mL

**Q.** And the IC80 [8]?
**A.** > 50 µg/mL

**Q.** And the MPI [8]?
**A.** 4

**Q.** And the IC50 [9]?
**A.** 0.222 µg/mL

**Q.** And the IC80 [9]?
**A.** 0.57 µg/mL

**Q.** What about the MPI [9] of the same substance?
**A.** 100

**Q.** What about the IC50 [10] of the same substance?
**A.** 0.289 µg/mL

**Q.** And the IC80 [10]?
**A.** 1.26 µg/mL

**Q.** And the MPI [10]?
**A.** 100

**Q.** And the IC50 [11]?
**A.** 0.127 µg/mL

**Q.** What about the IC80 [11] of the same substance?
**A.** 1.03 µg/mL

**Q.** What about the MPI [11] of the same substance?
**A.** 90

**Q.** And the IC50 [12]?
**A.** 0.079 µg/mL

**Q.** What about the IC80 [12] of the same substance?
**A.** 0.292 µg/mL

**Q.** What about the MPI [12] of the same substance?
**A.** 100

**Q.** What about the IC50 [13] of the same substance?
**A.** > 50 µg/mL

**Q.** And the IC80 [13]?
**A.** > 50 µg/mL

**Q.** What about the MPI [13] of the same substance?
**A.** 22

**Q.** And the IC50 [14]?
**A.** > 50 µg/mL

**Q.** And the IC80 [14]?
**A.** > 50 µg/mL

**Q.** And the MPI [14]?
**A.** 43

**Q.** What about the IC50 [15] of the same substance?
**A.** 0.098 µg/mL

**Q.** And the IC80 [15]?
**A.** 0.371 µg/mL

**Q.** And the MPI [15]?
**A.** 100

**Q.** What does the source list for N49P11 (antibody)?
**A.** IC50 [1]: 4.42 µg/mL; IC80 [1]: 17.6 µg/mL; MPI [1]: 100; IC50 [2]: 0.091 µg/mL; IC80 [2]: 0.698 µg/mL; MPI [2]: 100; IC50 [3]: 0.034 µg/mL; IC80 [3]: 0.12 µg/mL; MPI [3]: 100; IC50 [4]: 5.67 µg/mL; IC80 [4]: 18.2 µg/mL; MPI [4]: 100; IC50 [5]: 5.99 µg/mL; IC80 [5]: 20.7 µg/mL; MPI [5]: 100; IC50 [6]: 2.74 µg/mL; IC80 [6]: 15.3 µg/mL; MPI [6]: 100; IC50 [7]: 9.78 µg/mL; IC80 [7]: 24.2 µg/mL; MPI [7]: 100; IC50 [8]: 6.47 µg/mL; IC80 [8]: 22.9 µg/mL; MPI [8]: 100; IC50 [9]: 12.6 µg/mL; IC80 [9]: 26.4 µg/mL; MPI [9]: 100; IC50 [10]: 0.288 µg/mL; IC80 [10]: 1.28 µg/mL; MPI [10]: 100; IC50 [11]: 3.88 µg/mL; IC80 [11]: 21.2 µg/mL; MPI [11]: 100; IC50 [12]: 0.094 µg/mL; IC80 [12]: 0.346 µg/mL; MPI [12]: 100; IC50 [13]: 9.73 µg/mL; IC80 [13]: 26.1 µg/mL; MPI [13]: 100; IC50 [14]: 2.84 µg/mL; IC80 [14]: 10.6 µg/mL; MPI [14]: 100; IC50 [15]: 0.227 µg/mL; IC80 [15]: 1.03 µg/mL; MPI [15]: 100

**Q.** What does the source list for N49P18.1 (antibody)?
**A.** IC50 [1]: 3.05 µg/mL; IC80 [1]: 12.2 µg/mL; MPI [1]: 96; IC50 [2]: 5.47 µg/mL; IC80 [2]: 20.8 µg/mL; MPI [2]: 98; IC50 [3]: 3.38 µg/mL; IC80 [3]: 11.8 µg/mL; MPI [3]: 100; IC50 [4]: 18.3 µg/mL; IC80 [4]: > 50 µg/mL; MPI [4]: 73; IC50 [5]: 24.8 µg/mL; IC80 [5]: > 50 µg/mL; MPI [5]: 61; IC50 [6]: > 50 µg/mL; IC80 [6]: > 50 µg/mL; MPI [6]: 33; IC50 [7]: > 50 µg/mL; IC80 [7]: > 50 µg/mL; MPI [7]: 31; IC50 [8]: > 50 µg/mL; IC80 [8]: > 50 µg/mL; MPI [8]: 0; IC50 [9]: 8.56 µg/mL; IC80 [9]: 32.4 µg/mL; MPI [9]: 93; IC50 [10]: 27.3 µg/mL; IC80 [10]: > 50 µg/mL; MPI [10]: 67; IC50 [11]: 23 µg/mL; IC80 [11]: > 50 µg/mL; MPI [11]: 66; IC50 [12]: 8.63 µg/mL; IC80 [12]: 23.2 µg/mL; MPI [12]: 93; IC50 [13]: > 50 µg/mL; IC80 [13]: > 50 µg/mL; MPI [13]: 19; IC50 [14]: 0.418 µg/mL; IC80 [14]: 1.43 µg/mL; MPI [14]: 100; IC50 [15]: 2.97 µg/mL; IC80 [15]: 17.3 µg/mL; MPI [15]: 99

**Q.** Which results are given for VRC01 (antibody)?
**A.** IC50, titer in TZM.bl cells [16]: 0.03 µg/mL; IC80, titer in TZM.bl cells [16]: 0.096 µg/mL; IC50, titer in TZM.bl cells [17]: > 50 µg/mL; IC80, titer in TZM.bl cells [17]: > 50 µg/mL; IC50, titer in TZM.bl cells [18]: 0.53 µg/mL; IC80, titer in TZM.bl cells [18]: 1.84 µg/mL; IC50, titer in TZM.bl cells [19]: 0.08 µg/mL; IC80, titer in TZM.bl cells [19]: 0.265 µg/mL; IC50, titer in TZM.bl cells [1]: 0.02 µg/mL; IC80, titer in TZM.bl cells [1]: 0.08 µg/mL; IC50, titer in TZM.bl cells [20]: 0.13 µg/mL; IC80, titer in TZM.bl cells [20]: 0.46 µg/mL; IC50, titer in TZM.bl cells [2]: 0.21 µg/mL; IC80, titer in TZM.bl cells [2]: 0.59 µg/mL; IC50, titer in TZM.bl cells [21]: 0.07 µg/mL; IC80, titer in TZM.bl cells [21]: 0.23 µg/mL; IC50, titer in TZM.bl cells [3]: 0.08 µg/mL; IC80, titer in TZM.bl cells [3]: 0.32 µg/mL; IC50, titer in TZM.bl cells [22]: 0.13 µg/mL; IC80, titer in TZM.bl cells [22]: 0.75 µg/mL; IC50, titer in TZM.bl cells [23]: 0.96 µg/mL; IC80, titer in TZM.bl cells [23]: 4.68 µg/mL; IC50, titer in TZM.bl cells [4]: 14.3 µg/mL; IC80, titer in TZM.bl cells [4]: > 50 µg/mL; IC50, titer in TZM.bl cells [24]: 0.61 µg/mL; IC80, titer in TZM.bl cells [24]: 1.82 µg/mL; IC50, titer in TZM.bl cells [5]: 0.07 µg/mL; IC80, titer in TZM.bl cells [5]: 0.19 µg/mL; IC50, titer in TZM.bl cells [25]: 0.12 µg/mL; IC80, titer in TZM.bl cells [25]: 0.32 µg/mL; IC50, titer in TZM.bl cells [7]: 0.34 µg/mL; IC80, titer in TZM.bl cells [7]: 1.2 µg/mL; IC50, titer in TZM.bl cells [8]: > 50 µg/mL; IC80, titer in TZM.bl cells [8]: > 50 µg/mL; IC50, titer in TZM.bl cells [9]: 0.93 µg/mL; IC80, titer in TZM.bl cells [9]: 2.49 µg/mL; IC50, titer in TZM.bl cells [11]: 0.04 µg/mL; IC80, titer in TZM.bl cells [11]: 0.17 µg/mL; IC50, titer in TZM.bl cells [26]: 0.15 µg/mL; IC80, titer in TZM.bl cells [26]: 0.39 µg/mL; IC50, titer in TZM.bl cells [27]: 1.3 µg/mL; IC80, titer in TZM.bl cells [27]: 4 µg/mL; IC50, titer in TZM.bl cells [28]: 0.09 µg/mL; IC80, titer in TZM.bl cells [28]: 0.193 µg/mL; IC50, titer in TZM.bl cells [13]: 0.12 µg/mL; IC80, titer in TZM.bl cells [13]: 0.74 µg/mL; IC50, titer in TZM.bl cells [29]: 0.06 µg/mL; IC80, titer in TZM.bl cells [29]: 0.185 µg/mL; IC50, titer in TZM.bl cells [30]: 0.17 µg/mL; IC80, titer in TZM.bl cells [30]: 0.54 µg/mL; IC50, titer in TZM.bl cells [31]: 0.08 µg/mL; IC80, titer in TZM.bl cells [31]: 0.26 µg/mL; IC80, titer in TZM.bl cells [32]: > 50 µg/mL; IC50, titer in TZM.bl cells [15]: 0.04 µg/mL; IC80, titer in TZM.bl cells [15]: 0.09 µg/mL
